Assay results published in patent publication US9745384B2, “Peptides useful for modulating histone demethylase function” (The Brigham and Women's Hospital, Inc., priority 2012, dated 2017).
Ends that are not written are not given here.

T1: LSD2 (residues 51-822) (Homo sapiens, UniProt Q8NB78)
T1 construct: Human LSD2 (residues 51-822) was subcloned into a pFastBacl derivative; His6 (cleaved yes); made in house; host or cells: Sf9 insect cells (baculovirus)
T1 sequence (Q8NB78 51-822): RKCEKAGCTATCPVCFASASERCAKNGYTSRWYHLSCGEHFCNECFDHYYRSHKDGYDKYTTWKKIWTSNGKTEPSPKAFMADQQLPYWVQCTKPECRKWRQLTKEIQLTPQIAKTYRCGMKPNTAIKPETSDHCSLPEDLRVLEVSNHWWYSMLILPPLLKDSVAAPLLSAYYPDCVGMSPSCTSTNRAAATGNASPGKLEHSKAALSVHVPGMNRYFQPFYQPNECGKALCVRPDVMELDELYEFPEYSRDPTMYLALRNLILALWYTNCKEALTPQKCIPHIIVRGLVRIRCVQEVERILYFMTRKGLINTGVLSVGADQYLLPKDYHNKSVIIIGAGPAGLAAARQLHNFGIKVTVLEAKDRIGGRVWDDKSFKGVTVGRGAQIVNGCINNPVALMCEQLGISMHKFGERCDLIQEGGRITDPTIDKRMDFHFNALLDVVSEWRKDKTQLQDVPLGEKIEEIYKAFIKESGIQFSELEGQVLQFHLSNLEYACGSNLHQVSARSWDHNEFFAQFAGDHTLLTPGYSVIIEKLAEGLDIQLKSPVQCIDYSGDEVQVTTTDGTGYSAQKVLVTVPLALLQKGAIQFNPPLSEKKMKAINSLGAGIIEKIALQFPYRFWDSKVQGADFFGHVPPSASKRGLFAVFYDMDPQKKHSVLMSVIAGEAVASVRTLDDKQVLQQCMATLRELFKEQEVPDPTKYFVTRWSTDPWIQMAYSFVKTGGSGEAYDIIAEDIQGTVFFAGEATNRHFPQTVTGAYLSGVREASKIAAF

T2: His-LSD2 (Homo sapiens, UniProt Q8NB78)
T2 construct: typically 0.5 μg full-length His-LSD2; made in house; host or cells: Sf9 insect cells
T2 sequence (Q8NB78 1-822): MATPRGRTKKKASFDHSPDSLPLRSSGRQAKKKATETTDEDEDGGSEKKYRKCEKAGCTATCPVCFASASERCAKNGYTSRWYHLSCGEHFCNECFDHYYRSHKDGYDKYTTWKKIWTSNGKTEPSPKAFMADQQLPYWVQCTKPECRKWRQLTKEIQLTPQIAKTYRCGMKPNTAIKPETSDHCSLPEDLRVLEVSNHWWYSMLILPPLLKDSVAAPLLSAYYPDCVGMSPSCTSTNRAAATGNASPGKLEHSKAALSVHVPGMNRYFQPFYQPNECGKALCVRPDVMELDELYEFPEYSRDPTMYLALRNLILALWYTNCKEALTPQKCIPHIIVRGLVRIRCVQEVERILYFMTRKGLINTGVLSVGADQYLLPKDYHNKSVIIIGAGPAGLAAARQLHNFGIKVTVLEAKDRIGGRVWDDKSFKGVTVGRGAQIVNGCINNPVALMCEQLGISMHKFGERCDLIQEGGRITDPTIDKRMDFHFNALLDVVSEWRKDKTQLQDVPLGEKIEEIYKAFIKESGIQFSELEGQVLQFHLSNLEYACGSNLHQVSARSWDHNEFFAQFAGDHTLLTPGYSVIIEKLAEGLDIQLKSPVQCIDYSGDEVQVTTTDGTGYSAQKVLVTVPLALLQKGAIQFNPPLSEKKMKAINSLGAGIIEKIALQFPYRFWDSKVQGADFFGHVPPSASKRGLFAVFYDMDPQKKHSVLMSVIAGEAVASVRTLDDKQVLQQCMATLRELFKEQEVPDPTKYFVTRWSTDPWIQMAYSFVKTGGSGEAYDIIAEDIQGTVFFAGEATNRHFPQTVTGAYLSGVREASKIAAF

B1: NP.d5: GST-tagged NPAC truncation, dehydrogenase domain, residues 262-553 (protein)
chain: SITPTDKKIGFLGLGLMGSGIVSNLLKMGHTVTVWNRTAEKCDLFIQEGARLGRTPAEVVSTCDITFACVSDPKAAKDLVLGPSGVLQGIRPGKCYVDMSTVDADTVTELAQVIVSRGGRFLEAPVSGNQQLSNDGMLVILAAGDRGLYEDCSSCFQAMGKTSFFLGEVGNAAKMMLIVNMVQGSFMATIAEGLTLAHVTGQSQQTLLDILNQGQLASIFLDQKCQNILQGNFKPDFYLKYIQKDLRLAIALGDAVNHPTPMAAAANEVYKRAKALDQSDNDMSAVYRAYIH
modifications: left off: a dimerising Fc or GST
B2: NP.d2: GST-tagged NPAC truncation, residues 1-252 (protein)
chain: MAAVSLRLGDLVWGKLGRYPPWPGKIVNPPKDLKKPRGKKCFFVKFFGTEDHAWIKVEQLKPYHAHKEEMIKINKGKRFQQAVDAVEEFLRRAKGKDQTSSHNSSDDKNRRNSSEERSRPNSGDEKRKLSLSEGKVKKNMGEGKKRVSSGSSERGSKSPLKRAQEQSPRKRGRPPKDEKDLTIPESSTVKGMMAGPMAAFKWQPTASEPVKDADPHFHHFLLSQTEKPAVCYQAITKKLKICEEETGSTSIQ
modifications: left off: a dimerising Fc or GST
B3: NP.d6: NPAC with deletion of the linker region (residues 152-252) (protein)
chain: MAAVSLRLGDLVWGKLGRYPPWPGKIVNPPKDLKKPRGKKCFFVKFFGTEDHAWIKVEQLKPYHAHKEEMIKINKGKRFQQAVDAVEEFLRRAKGKDQTSSHNSSDDKNRRNSSEERSRPNSGDEKRKLSLSEGKVKKNMGEGKKRVSSGSAADSTAVNGSITPTDKKIGFLGLGLMGSGIVSNLLKMGHTVTVWNRTAEKCDLFIQEGARLGRTPAEVVSTCDITFACVSDPKAAKDLVLGPSGVLQGIRPGKCYVDMSTVDADTVTELAQVIVSRGGRFLEAPVSGNQQLSNDGMLVILAAGDRGLYEDCSSCFQAMGKTSFFLGEVGNAAKMMLIVNMVQGSFMATIAEGLTLAHVTGQSQQTLLDILNQGQLASIFLDQKCQNILQGNFKPDFYLKYIQKDLRLAIALGDAVNHPTPMAAAANEVYKRAKALDQSDNDMSAVYRAYIH
modifications: left off: a dimerising Fc or GST; small tags and cut ends
B4: NP.d4: GST-tagged NPAC truncation, residues 152-553 (protein)
chain: SERGSKSPLKRAQEQSPRKRGRPPKDEKDLTIPESSTVKGMMAGPMAAFKWQPTASEPVKDADPHFHHFLLSQTEKPAVCYQAITKKLKICEEETGSTSIQAADSTAVNGSITPTDKKIGFLGLGLMGSGIVSNLLKMGHTVTVWNRTAEKCDLFIQEGARLGRTPAEVVSTCDITFACVSDPKAAKDLVLGPSGVLQGIRPGKCYVDMSTVDADTVTELAQVIVSRGGRFLEAPVSGNQQLSNDGMLVILAAGDRGLYEDCSSCFQAMGKTSFFLGEVGNAAKMMLIVNMVQGSFMATIAEGLTLAHVTGQSQQTLLDILNQGQLASIFLDQKCQNILQGNFKPDFYLKYIQKDLRLAIALGDAVNHPTPMAAAANEVYKRAKALDQSDNDMSAVYRAYIH
modifications: left off: a dimerising Fc or GST
B5: NP.d9: NP.d3 with deletion of amino acids 214-222 (protein)
chain: SERGSKSPLKRAQEQSPRKRGRPPKDEKDLTIPESSTVKGMMAGPMAAFKWQPTASEPVKDASQTEKPAVCYQAITKKLKICEEETGSTSIQ
modifications: left off: a dimerising Fc or GST; small tags and cut ends
B6: NP.d1: GST-tagged NPAC truncation, PWWP domain, residues 1-150 (protein)
chain: MAAVSLRLGDLVWGKLGRYPPWPGKIVNPPKDLKKPRGKKCFFVKFFGTEDHAWIKVEQLKPYHAHKEEMIKINKGKRFQQAVDAVEEFLRRAKGKDQTSSHNSSDDKNRRNSSEERSRPNSGDEKRKLSLSEGKVKKNMGEGKKRVSSG
modifications: left off: a dimerising Fc or GST
B7: NP.d3: GST-tagged NPAC truncation, residues 152-252 (protein)
chain: SERGSKSPLKRAQEQSPRKRGRPPKDEKDLTIPESSTVKGMMAGPMAAFKWQPTASEPVKDADPHFHHFLLSQTEKPAVCYQAITKKLKICEEETGSTSIQ
modifications: left off: a dimerising Fc or GST

Columns and labels:
[1] = molecular target: T1, LSD2 (residues 51-822); assay: ITC binding of wild-type and mutant NPAC peptides (residues 214-225) with LSD2; conditions: 15 °C; 3 mM NPAC peptide injected into 0.2 mM LSD2
Description: All proteins and peptides were prepared in 10 mM HEPES, pH 8.0, and 0.1 M NaCl. The data were fitted by software Origin 7.0.

[2] = molecular target: T2, His-LSD2; assay: Nucleosome demethylation assay (NPAC cofactor activity for LSD2, immunoblot); assay type: biochemical; conditions: threshold dosage of His-LSD2; nucleosomes purified from HeLa
Description: For nucleosome demethylation assays, typically 0.5 μg full-length His-LSD2, 1 μg NPAC protein or peptides, and 2 μg nucleosomes purified from HeLa were used, and demethylation efficiency was analyzed by SDS-PAGE electrophoresis and immunoblot using methylation specific anti-histone H3 antibodies as previously described (Shi et al. 2004).

[3] = molecular target: T2, His-LSD2; assay: GST-pulldown of His-LSD2 by GST-NPAC proteins; assay type: binding; conditions: coomassie blue staining
Description: […] GST or GST-NPAC fusion proteins were bound to glutathione agarose, and were incubated with 2 μg full-length His-LSD2 overnight in 50 mM NaPO4 pH 7.4, 150 mM NaCl, 0.5% NP-40, 5% glycerol, 10 μM ZnSO4, 1 mM MgCl2, 1 mM DTT, 0.1 mM PMSF at 4° C. After washed 4 times with same buffer at 4° C., glutathione agarose beads were boiled in 1×SDS sample loading buffer. Elute was resolved on a 15% SDS-PAGE gel and stained by coomassie blue.

| Molecule | Δ H [1] [kcal/mol] | Δ S [1] [cal/mol/deg] | Cofactor activity: stimulation of LSD2 demethylation of nucleosomal H3K4me2 [2] | LSD2 binding (GST-pulldown) [3] |
| --- | --- | --- | --- | --- |
| CC(C)C[C@H](NC(=O)[C@H](Cc1ccccc1)NC(=O)[C@H](Cc1c[nH]cn1)NC(=O)[C@H](Cc1c[nH]cn1)NC(=O)[C@H](C)NC(=O)[C@H](C)NC(=O)[C@@H]1CCCN1C(=O)[C@H](C)N)C(=O)N[C@@H](CC(C)C)C(=O)N[C@@H](CO)C(=O)N[C@@H](CCC(N)=O)C(=O)N[C@H](C(=O)O)[C@@H](C)O [NPAC.214-225.M8] | -8.288 ± 0.101 | −1.3 | – | – |
| NP.d7: NPAC residues 152-186, containing the AT hook motif (SERGSKSPLKRAQEQSPRKRGRPPKDEKDLTIPES; also: fused to dimerising Fc or GST) | – | – | but not NP.d7 or NP.d9, significantly enhances LSD2 histone demethylase activity | but not NP.d7 (residues 152-186, containing the AT hook motif, lane 4), is sufficient for LSD2 interaction |
| B1 | – | – | Neither the PWWP domain (SEQ ID NO: 63) (NP.d1, residues 1-150) nor the dehydrogenase domain (NP.d5, residues 262-553) stimulated LSD2 | Neither the PWWP domain (SEQ ID NO: 63) (NP.d1) nor the dehydrogenase domain (NP.d5) interacts with LSD2 |
| B2 | – | – | significantly enhance LSD2 demethylase activity | capable of directly interacting with LSD2 |
| B3 | – | – | abolishes cofactor activity | abolishes NPAC-LSD2 interaction |
| B4 | – | – | significantly enhance LSD2 demethylase activity | capable of directly interacting with LSD2 |
| B5 | – | – | but not NP.d7 or NP.d9, significantly enhances LSD2 histone demethylase activity | completely abolishes LSD2 binding |
| B6 | – | – | Neither the PWWP domain (SEQ ID NO: 63) (NP.d1, residues 1-150) nor the dehydrogenase domain (NP.d5, residues 262-553) stimulated LSD2 | Neither the PWWP domain (SEQ ID NO: 63) (NP.d1) nor the dehydrogenase domain (NP.d5) interacts with LSD2 |
| B7 | – | – | significantly enhance LSD2 demethylase activity | capable of directly interacting with LSD2 |
